Source: patent US20230052369A1 (Zymeworks, published 2023)
Numbering of substitutions follows the chain as printed.

B1: v23800 (antibody, human IgG1, kappa)
heavy: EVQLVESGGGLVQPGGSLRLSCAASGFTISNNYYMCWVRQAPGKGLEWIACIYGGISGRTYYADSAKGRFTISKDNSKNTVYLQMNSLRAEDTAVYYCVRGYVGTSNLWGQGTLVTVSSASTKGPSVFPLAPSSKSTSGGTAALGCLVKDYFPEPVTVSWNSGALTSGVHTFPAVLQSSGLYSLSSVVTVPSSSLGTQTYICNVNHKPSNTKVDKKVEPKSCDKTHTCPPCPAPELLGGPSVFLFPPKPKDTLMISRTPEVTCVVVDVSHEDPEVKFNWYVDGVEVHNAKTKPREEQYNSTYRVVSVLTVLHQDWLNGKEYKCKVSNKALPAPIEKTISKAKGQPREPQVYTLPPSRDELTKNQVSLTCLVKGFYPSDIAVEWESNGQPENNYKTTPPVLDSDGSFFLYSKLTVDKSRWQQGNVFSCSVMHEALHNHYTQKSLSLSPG
light: DIQMTQSPSSLSASVGDRVTITCQASQSIYSSLAWYQQKPGKAPKLLIYDASHLASGVPSRFSGSGSGTDFTLTISSVQPEDFATYYCQGGWYSSAATYVPNTFGGGTKVEVKRTVAAPSVFIFPPSDEQLKSGTASVVCLLNNFYPREAKVQWKVDNALQSGNSQESVTEQDSKDSTYSLSSTLTLSKADYEKHKVYACEVTHQGLSSPVTKSFNRGEC
notes: also called humanized 8K22 H2L2
B2: v23808 (antibody, human IgG1, kappa, V domains shown)
VH: EVQLVESGGGLVQPGGSLRLSCAASGFTISNNYYMCWVRQAPGKGLEWIACIYGGISGRTYYADWAKGRFTISKDSSKNTVYLQMNSLRAEDTAVYYCVRGYVGTSNLWGQGTLVTVSS
VL: DIQMTQSPSSLSASVGDRVTITCQASQSIYSSLAWYQQKPGKAPKLLIYDASHLASGVPSRFSGSRYGTDFTLTISSVQPEDFATYYCQGGWYSSAATYVPNTFGGGTKVEVKR
notes: also called humanized 8K22 H5L3
B3: v23799 (antibody, human IgG1, kappa)
heavy: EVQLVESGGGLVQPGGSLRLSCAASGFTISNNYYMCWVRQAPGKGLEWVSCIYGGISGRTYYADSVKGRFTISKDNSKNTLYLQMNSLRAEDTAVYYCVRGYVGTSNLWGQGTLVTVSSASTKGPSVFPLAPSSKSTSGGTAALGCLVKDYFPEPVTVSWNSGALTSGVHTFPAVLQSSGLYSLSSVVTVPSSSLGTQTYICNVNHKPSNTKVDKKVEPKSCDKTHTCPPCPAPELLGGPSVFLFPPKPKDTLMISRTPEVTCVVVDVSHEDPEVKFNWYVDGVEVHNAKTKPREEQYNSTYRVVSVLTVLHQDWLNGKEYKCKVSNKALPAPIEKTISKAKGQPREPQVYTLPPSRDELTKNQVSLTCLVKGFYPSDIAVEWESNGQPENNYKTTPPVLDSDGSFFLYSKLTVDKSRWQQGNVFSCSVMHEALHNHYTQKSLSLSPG
light: B1 light
notes: also called humanized 8K22 H1L2
B4: v23801 (antibody, human IgG1, kappa)
heavy: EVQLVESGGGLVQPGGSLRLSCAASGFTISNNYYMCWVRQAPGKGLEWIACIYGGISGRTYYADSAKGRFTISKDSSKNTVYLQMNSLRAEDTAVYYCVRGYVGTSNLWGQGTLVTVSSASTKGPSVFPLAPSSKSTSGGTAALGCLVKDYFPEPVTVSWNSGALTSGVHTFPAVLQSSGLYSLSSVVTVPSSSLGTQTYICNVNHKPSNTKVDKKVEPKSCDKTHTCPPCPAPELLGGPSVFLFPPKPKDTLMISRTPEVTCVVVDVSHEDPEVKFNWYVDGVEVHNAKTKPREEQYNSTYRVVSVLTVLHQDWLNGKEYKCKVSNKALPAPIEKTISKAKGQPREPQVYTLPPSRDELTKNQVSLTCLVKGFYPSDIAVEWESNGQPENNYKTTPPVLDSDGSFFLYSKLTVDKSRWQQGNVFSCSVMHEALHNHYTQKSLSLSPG
light: B1 light
notes: also called humanized 8K22 H3L2
B5: v23796 (antibody, human IgG1, kappa)
heavy: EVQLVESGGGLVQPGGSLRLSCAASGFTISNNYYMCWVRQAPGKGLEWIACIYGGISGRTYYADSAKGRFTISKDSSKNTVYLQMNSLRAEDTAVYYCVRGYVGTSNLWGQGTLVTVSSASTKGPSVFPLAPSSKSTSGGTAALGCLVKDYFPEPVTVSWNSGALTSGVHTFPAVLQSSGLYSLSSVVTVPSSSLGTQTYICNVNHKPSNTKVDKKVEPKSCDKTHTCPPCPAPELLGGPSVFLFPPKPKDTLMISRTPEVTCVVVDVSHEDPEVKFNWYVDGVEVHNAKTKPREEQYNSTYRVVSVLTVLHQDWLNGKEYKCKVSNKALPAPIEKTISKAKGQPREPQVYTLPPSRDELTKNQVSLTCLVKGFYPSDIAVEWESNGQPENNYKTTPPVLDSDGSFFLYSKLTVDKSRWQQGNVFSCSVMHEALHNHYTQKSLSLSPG
light: B1 light with V112I
notes: also called humanized 8K22 H3L1
B6: v23815 (antibody, human IgG1, kappa, V domains shown)
VH: B2 VH with W65S, S76N
VL: B2 VL with F83A
notes: also called humanized 8K22 H2L5
B7: v23803 (antibody, human IgG1, kappa)
heavy: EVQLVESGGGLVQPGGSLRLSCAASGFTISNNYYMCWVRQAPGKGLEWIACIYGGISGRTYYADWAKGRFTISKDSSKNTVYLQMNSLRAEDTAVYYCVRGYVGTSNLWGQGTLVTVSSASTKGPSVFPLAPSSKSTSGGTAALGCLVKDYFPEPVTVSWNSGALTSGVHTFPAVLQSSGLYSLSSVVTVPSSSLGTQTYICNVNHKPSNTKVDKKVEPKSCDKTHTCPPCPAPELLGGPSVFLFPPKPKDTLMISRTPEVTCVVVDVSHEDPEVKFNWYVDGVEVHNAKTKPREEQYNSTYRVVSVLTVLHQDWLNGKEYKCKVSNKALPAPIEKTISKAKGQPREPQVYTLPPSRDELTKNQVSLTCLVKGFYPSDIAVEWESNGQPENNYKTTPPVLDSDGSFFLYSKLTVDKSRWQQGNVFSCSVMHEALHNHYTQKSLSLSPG
light: B1 light
notes: also called humanized 8K22 H5L2
B8: v23805 (antibody, human IgG1, kappa, V domains shown)
VH: B2 VH with W65S, S76N
VL: B2 VL
notes: also called humanized 8K22 H2L3
B9: v23816 (antibody, human IgG1, kappa, V domains shown)
VH: B2 VH with W65S
VL: B2 VL with F83A
notes: also called humanized 8K22 H3L5
B10: v23811 (antibody, human IgG1, kappa, V domains shown)
VH: B2 VH with W65S
VL: B2 VL with R66G, Y67S, F83A
notes: also called humanized 8K22 H3L4
B11: v23795 (antibody, human IgG1, kappa)
heavy: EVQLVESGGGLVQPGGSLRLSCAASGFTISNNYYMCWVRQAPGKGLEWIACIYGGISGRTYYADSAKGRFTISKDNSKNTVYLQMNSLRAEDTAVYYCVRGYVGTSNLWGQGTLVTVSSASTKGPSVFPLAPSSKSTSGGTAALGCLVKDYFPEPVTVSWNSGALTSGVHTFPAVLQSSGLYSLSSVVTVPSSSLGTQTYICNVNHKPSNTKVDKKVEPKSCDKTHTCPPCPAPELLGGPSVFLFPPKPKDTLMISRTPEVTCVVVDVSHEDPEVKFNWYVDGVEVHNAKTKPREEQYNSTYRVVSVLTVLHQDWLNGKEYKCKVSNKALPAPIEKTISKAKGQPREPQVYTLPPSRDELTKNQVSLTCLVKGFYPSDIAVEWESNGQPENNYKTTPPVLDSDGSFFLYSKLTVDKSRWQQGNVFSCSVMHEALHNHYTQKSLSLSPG
light: B1 light with V112I
notes: also called humanized 8K22 H2L1
B12: v23813 (antibody, human IgG1, kappa, V domains shown)
VH: B2 VH
VL: B2 VL with R66G, Y67S, F83A
notes: also called humanized 8K22 H5L4
B13: v23798 (antibody, human IgG1, kappa)
heavy: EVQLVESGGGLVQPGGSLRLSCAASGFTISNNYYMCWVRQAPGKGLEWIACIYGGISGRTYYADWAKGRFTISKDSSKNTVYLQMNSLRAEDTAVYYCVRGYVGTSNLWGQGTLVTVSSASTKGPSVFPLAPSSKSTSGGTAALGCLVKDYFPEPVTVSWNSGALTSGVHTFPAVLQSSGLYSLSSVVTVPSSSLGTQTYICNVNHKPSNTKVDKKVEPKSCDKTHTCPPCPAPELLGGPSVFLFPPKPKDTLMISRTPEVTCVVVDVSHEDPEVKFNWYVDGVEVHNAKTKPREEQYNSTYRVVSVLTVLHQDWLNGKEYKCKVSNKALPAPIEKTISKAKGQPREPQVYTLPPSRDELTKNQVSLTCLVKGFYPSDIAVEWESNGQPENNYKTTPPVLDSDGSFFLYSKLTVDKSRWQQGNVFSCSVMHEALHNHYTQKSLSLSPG
light: B1 light with V112I
notes: also called humanized 8K22 H5L1
B14: v23794 (antibody, human IgG1, kappa)
heavy: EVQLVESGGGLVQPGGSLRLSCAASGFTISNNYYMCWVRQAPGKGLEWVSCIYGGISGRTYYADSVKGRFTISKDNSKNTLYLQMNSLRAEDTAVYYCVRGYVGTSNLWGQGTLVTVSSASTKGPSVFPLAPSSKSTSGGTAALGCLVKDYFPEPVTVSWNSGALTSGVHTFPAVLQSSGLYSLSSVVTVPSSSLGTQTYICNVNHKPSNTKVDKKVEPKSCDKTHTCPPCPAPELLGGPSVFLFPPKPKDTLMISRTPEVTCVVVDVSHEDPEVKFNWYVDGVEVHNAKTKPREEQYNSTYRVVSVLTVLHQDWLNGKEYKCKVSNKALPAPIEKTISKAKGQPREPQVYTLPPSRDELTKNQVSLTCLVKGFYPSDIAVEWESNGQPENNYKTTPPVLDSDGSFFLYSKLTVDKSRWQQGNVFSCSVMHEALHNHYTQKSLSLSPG
light: B1 light with V112I
notes: also called humanized 8K22 H1L1
B15: v23809 (antibody, human IgG1, kappa, V domains shown)
VH: B2 VH with I49V, A50S, W65S, A66V, S76N, V81L
VL: B2 VL with R66G, Y67S, F83A
notes: also called humanized 8K22 H1L4
B16: v23804 (antibody, human IgG1, kappa, V domains shown)
VH: B2 VH with I49V, A50S, W65S, A66V, S76N, V81L
VL: B2 VL
notes: also called humanized 8K22 H1L3
B17: v23814 (antibody, human IgG1, kappa, V domains shown)
VH: B2 VH with I49V, A50S, W65S, A66V, S76N, V81L
VL: B2 VL with F83A
notes: also called humanized 8K22 H1L5
B18: v23806 (antibody, human IgG1, kappa, V domains shown)
VH: B2 VH with W65S
VL: B2 VL
notes: also called humanized 8K22 H3L3
B19: v23810 (antibody, human IgG1, kappa, V domains shown)
VH: B2 VH with W65S, S76N
VL: B2 VL with R66G, Y67S, F83A
notes: also called humanized 8K22 H2L4
B20: v28690 (antibody, human IgG1, kappa, L234A L235A, V domains shown)
VH: EVQLVESGGGLVQPGGSLRLSCAASGFTFSEFGMHWVRQAPGKGLEWVAYISSGGSTIYYADSVKGRFTISRDNAKNSLYLQMNSLRAEDTAVYYCARDWVDYWGQGTLLTVSS
VL: EIVMTQSPATLSLSPGERVTLSCKASENVGSYVSWYQQKPGQAPRLLIYGASNRYTGVPARFSGSGSGTDFTLTISSVEPEDLAVYYCGQSYSYPLTFGGGTKLELKR
notes: also called humanized 1G1 H2L4
B21: v28691 (antibody, human IgG1, kappa, L234A L235A, V domains shown)
VH: B20 VH with V93M
VL: B20 VL with M4L, V19A, V58I, V78L, L83F, L104V, L106I
notes: also called humanized 1G1 H3L1
B22: v28694 (antibody, human IgG1, kappa, L234A L235A, V domains shown)
VH: B20 VH with V93M
VL: B20 VL
notes: also called humanized 1G1 H3L4
B23: v28693 (antibody, human IgG1, kappa, L234A L235A, V domains shown)
VH: B20 VH with V93M
VL: B20 VL with L83F
notes: also called humanized 1G1 H3L3
B24: v28692 (antibody, human IgG1, kappa, L234A L235A, V domains shown)
VH: B20 VH with V93M
VL: B20 VL with M4L, V19A, V78L, L83F, L104V, L106I
notes: also called humanized 1G1 H3L2
B25: v28705 (antibody, human IgG1, kappa, L234A L235A, V domains shown)
VH: QVQLQESGPGLVKPSETLSITCTVSGFSLISYGVHWVRQPPGKGLEWLGVIWSGGSTDYNPSLKSRVTISKDTSKNQVSFKLSSLTAADTAIYYCARNPLTATVMDYWGQGTLVTVSS
VL: DIQMTQSPSSLSASVGDRVTVTCRASQNVGTNVAWYQQKPGKAPKALIYSASYRDSGVPSRFSGSGSGTDFTLTISSVQPEDFATYYCQQYNSYPLTFGGGTKLEIKR
notes: also called humanized 5G8 H3L3
B26: v28706 (antibody, human IgG1, kappa, L234A L235A, V domains shown)
VH: B25 VH
VL: B25 VL with F83L
notes: also called humanized 5G8 H3L4
B27: v28712 (antibody, human IgG1, kappa, L234A L235A, V domains shown)
VH: B25 VH with T73N
VL: B25 VL
notes: also called humanized 5G8 H4L3
B28: v28707 (antibody, human IgG1, kappa, L234A L235A, V domains shown)
VH: B25 VH with T73N
VL: B25 VL with V21I, Y36F, A46S, V78L, L104V
notes: also called humanized 5G8 H4L1
B29: v28713 (antibody, human IgG1, kappa, L234A L235A, V domains shown)
VH: B25 VH with T73N
VL: B25 VL with F83L
notes: also called humanized 5G8 H4L4
B30: v28711 (antibody, human IgG1, kappa, L234A L235A, V domains shown)
VH: B25 VH with T73N
VL: B25 VL with V21I, V78L, L104V
notes: also called humanized 5G8 H4L2
B31: v28700 (antibody, human IgG1, kappa, L234A L235A, V domains shown)
VH: B25 VH with I20L, V78F, F80L, L85V, I92V
VL: B25 VL with V21I, V78L, L104V
notes: also called humanized 5G8 H2L2
B32: v28704 (antibody, human IgG1, kappa, L234A L235A, V domains shown)
VH: B25 VH
VL: B25 VL with V21I, V78L, L104V
notes: also called humanized 5G8 H3L2
B33: v28701 (antibody, human IgG1, kappa, L234A L235A, V domains shown)
VH: B25 VH with I20L, V78F, F80L, L85V, I92V
VL: B25 VL
notes: also called humanized 5G8 H2L3
B34: v28703 (antibody, human IgG1, kappa, L234A L235A, V domains shown)
VH: B25 VH
VL: B25 VL with V21I, Y36F, A46S, V78L, L104V
notes: also called humanized 5G8 H3L1
B35: v28702 (antibody, human IgG1, kappa, L234A L235A, V domains shown)
VH: B25 VH with I20L, V78F, F80L, L85V, I92V
VL: B25 VL with F83L
notes: also called humanized 5G8 H2L4
B36: v28698 (antibody, human IgG1, kappa, L234A L235A, V domains shown)
VH: B25 VH with I20L, V37I, L48I, K71V, V78F, F80L, L85V, I92V
VL: B25 VL with F83L
notes: also called humanized 5G8 H1L4
B37: v23820 (antibody, human IgG1, kappa, V domains shown)
VH: QEQLVESGGGLVQPEGSLTLTCKASGFTISNNYYMCWVRQAPGKGLEWIACIYGGISGRTYYASWAKGRFTISKTSSTTVTLQMTSLTAADTATYFCVRGYVGTSNLWGPGTLVTVSS
VL: DIVMTQTPASVEAAVGGTVTIKCQASQSIYSSLAWYQQKPGQSPKLLIYDASHLASGVPSRFSGSRYGTEFTLTISGVQCDDAATYYCQGGWYSSAATYVPNTFGGGTEVVVKR
notes: FSA format; rabbit variable domains, human IgG1/kappa constant domains; also called 8K22 rabbit-human parental chimera

Experiments:
[1] = target: T1, recombinant His-tagged human FRα (human, UniProt P15328 25-234); experiment: BLI, supernatant, n=1
T1 construct: Bought protein; also called hFRα; FRα-HIS
T1 sequence (P15328 25-234 limits assumed): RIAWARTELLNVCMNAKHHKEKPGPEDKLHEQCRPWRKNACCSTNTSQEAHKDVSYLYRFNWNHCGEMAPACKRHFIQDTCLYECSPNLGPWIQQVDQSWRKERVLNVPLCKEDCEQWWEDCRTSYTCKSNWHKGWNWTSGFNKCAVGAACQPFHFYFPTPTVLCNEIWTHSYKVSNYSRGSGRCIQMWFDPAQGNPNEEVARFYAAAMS
Protocol: (§1) The assay buffer used was KB buffer (kinetics buffer, composed of PBS pH 7.4, 0.1% BSA, 0.02% Tween 20, 0.05% sodium azide) supplemented with 0.06% Tween 20. The experiment was conducted at 25° C. with a shake speed of 1000 rpm.
(§2) Data analysis was performed using the Data analysis software 9.0′ (ForteBio). The reference-subtracted binding curves were globally fitted to the 1:1 interaction model to generate the binding kinetic parameters kₒₙ, koff, and the dissociation constant KD.

[2] = target: T1, recombinant His-tagged human FRα; experiment: BLI, purified, average n=2
Protocol: as §1, §2

[3] = target: T2, purified human monomeric 4-1BB (human, UniProt Q07011 24-186); experiment: SPR, mean n=3;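 further: antibodies captured on anti-human Fc chip, 4-1BB injected as five-point two-fold series from 40 nM by single-cycle kinetics at 25 °C, sensorgrams fitted to 1:1 Langmuir model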
T2 construct: the assay used the 4-1BB part released by Factor Xa with the Fc removed; also called h4-1BB; human 4-1BB
T2 sequence (Q07011 other isoform, or with tags, fused parts or gaps limits assumed): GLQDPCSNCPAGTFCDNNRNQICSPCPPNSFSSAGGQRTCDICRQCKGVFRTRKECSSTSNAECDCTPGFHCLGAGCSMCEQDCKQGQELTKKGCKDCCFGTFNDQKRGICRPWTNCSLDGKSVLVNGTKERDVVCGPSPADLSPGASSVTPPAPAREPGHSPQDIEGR
Protocol: The anti-human Fc surface was prepared on a CMS Series S sensorchip by standard amine coupling methods as described by the manufacturer (GE Healthcare). Briefly, immediately after EDC/NHS activation, a 25 μg/mL solution of anti-human Fc in 10 mM NaOAc pH 4.5 was injected at a flow rate of 10 μL/min for 420 s until approximately 2000 resonance units (RUs) were immobilized on all four flow cells. The remaining active groups were quenched by a 420 s injection of 1M ethanolamine at 10 μL/min.
Antibodies for analysis were captured onto the anti-Fc surface by injecting 5 μg/mL solutions at a flow rate of 10 μL/min for 60 s. Using single-cycle kinetics, five concentrations of a two-fold dilution series of 4-1BB starting at 40 nM (for both supernatant and purified antibody runs) with a blank buffer control were sequentially injected at 40 μL/min for 180 s with a 600 s dissociation phase, resulting in a set of sensorgrams with a buffer blank reference. Experiments were performed at a constant temperature of 25° C. The anti-human Fc surfaces were regenerated to prepare for the next injection cycle by one pulse of 10 mM Glycine/HCl pH 1.5 for 120 s at 40 μL/min. Blank-subtracted sensorgrams were analyzed using Biacore™ T200 Evaluation Software v3.0. The blank-subtracted sensorgrams were then fit to the 1:1 Langmuir binding model.
Protein material post protein-A or SEC was assessed for binding to human 4-1BB.

[4] = target: T3, human 4-1BB, full-length, expressed on cells (human, UniProt Q07011 24-255); experiment: flow cytometry, Jurkat-4-1BB
T3 construct: also called CD137; TNFRSF9
T3 sequence (Q07011 24-255): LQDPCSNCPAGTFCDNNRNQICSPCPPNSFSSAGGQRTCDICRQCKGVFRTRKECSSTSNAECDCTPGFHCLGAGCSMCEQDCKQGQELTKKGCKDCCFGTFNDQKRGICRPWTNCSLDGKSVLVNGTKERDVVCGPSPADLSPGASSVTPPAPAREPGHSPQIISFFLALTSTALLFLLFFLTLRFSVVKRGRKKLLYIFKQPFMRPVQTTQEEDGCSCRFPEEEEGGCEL
Protocol: Jurkat T cells engineered to stably express human 4-1BB were used to measure binding of antibodies to human 4-1BB. Antibodies were diluted in 5 μl FB (PBS 2% FCS) 1:3 from stock in wells of a 96 V-well plate, and cells added on top. The cells were then left on ice for 30 minutes for the antibodies to bind. The cells were then washed twice in FB, and then incubated in 50 μl FB containing 2 μg/ml goat anti-human Alexa647 antibody (Jackson Immunoresearch). The cells were then left on ice for a further 20 minutes, washed twice in FB, resuspended in 100 μl FB and analysed on a BD Fortessa™ X20. The subsequent data files were analysed using FlowJo™ and Prism 7 (GraphPad) using a four-parameter non-linear regression.

Binder	Kd [1] [nM]	Kd [2] [nM]	Kd [3] [nM]	EC50 [4] [nM]
B1	36.5	–	–	–
B2	19.3	13.1	–	–
B3	13.8	4.8	–	–
B4	22.1	8.66	–	–
B5	22.2	11.2	–	–
B6	16.7	16.5	–	–
B7	31.7	–	–	–
B8	16.2	10.2	–	–
B9	10.4	10.6	–	–
B10	22.5	8.83	–	–
B11	35.7	–	–	–
B12	34.6	–	–	–
B13	11.9	6.85	–	–
B14	15.1	7.36	–	–
B15	12.1	9.03	–	–
B16	9.29	4.66	–	–
B17	10.1	6.31	–	–
B18	11.5	7	–	–
B19	35	–	–	–

Binder	Kd [1] [nM]	Kd [2] [nM]	Kd [3] [nM]	EC50 [4] [nM]
B20	–	–	34.4	0.376
B21	–	–	54.2	1.44
B22	–	–	34.7	0.455
B23	–	–	36.2	0.353
B24	–	–	46.4	0.771
B25	–	–	195	3.32
B26	–	–	159	1.92
B27	–	–	229	3.56
B28	–	–	732	51.6
B29	–	–	184	2.34
B30	–	–	227	139
B31	–	–	222	56.4
B32	–	–	179	3.46
B33	–	–	610	30
B34	–	–	811	3.58
B35	–	–	620	55.6
B36	–	–	1110	38.3
B37	5.94	4.11	–	–
